From patent US20130209458A1

Molecular target: MUC1 (TA-Muc1) on the human tumor cell line ZR-75-1 (human) (UniProt P15941)
Assay: Scatchard analysis, 111In-labelled antibody on ZR-75-1 cells

Substance | Kd [nM]
PankoMab expressed in GT-5s (antibody) | 3.33
PankoMab expressed in CHO (antibody) | 7.8
